In patent US20200087367A1 (ACCELERON PHARMA, published 2020):

Experiments:
Experiment in all cases: SPR, captured hENG-hFc, soluble BMP9; '-' = Binding undetectable
[1] = molecular target: T1, hENG(26-332)-hFc (human, UniProt P17813 26-332)
T1 construct: HEK 293, purified; not shown: linker and human IgG1 Fc domain
T1 sequence: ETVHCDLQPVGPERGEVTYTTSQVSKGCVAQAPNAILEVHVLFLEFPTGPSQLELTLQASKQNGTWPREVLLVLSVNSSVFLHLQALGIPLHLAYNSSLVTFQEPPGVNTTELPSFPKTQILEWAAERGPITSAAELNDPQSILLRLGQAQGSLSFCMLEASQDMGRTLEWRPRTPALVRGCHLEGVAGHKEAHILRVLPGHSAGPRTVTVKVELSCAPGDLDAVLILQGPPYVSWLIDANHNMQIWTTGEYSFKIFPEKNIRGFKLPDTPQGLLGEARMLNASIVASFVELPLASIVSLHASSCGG
Protocol: (§1) SPR methodology was used to screen these hENG-hFc protein variants for high-affinity binding to human BMP9 and BMP10. In these experiments, captured hENG-hFc proteins were exposed to soluble BMP9 or BMP10 at 100 nM each.

[2] = molecular target: T2, hENG(26-329)-hFc (human, UniProt P17813 26-329)
T2 construct: HEK 293, purified; not shown: linker and human IgG1 Fc domain
T2 sequence: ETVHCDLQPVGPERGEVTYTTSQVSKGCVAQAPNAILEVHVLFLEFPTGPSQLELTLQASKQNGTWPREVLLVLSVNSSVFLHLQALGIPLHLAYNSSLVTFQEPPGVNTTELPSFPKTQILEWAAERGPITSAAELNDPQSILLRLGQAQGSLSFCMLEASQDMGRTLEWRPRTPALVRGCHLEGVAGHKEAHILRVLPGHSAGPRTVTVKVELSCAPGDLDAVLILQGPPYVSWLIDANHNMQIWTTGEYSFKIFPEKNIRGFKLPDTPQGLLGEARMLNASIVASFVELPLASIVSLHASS
Protocol: as §1

[3] = molecular target: T3, hENG(26-257)-hFc (human, UniProt P17813 26-257)
T3 construct: HEK 293, purified; not shown: linker and human IgG1 Fc domain
T3 sequence: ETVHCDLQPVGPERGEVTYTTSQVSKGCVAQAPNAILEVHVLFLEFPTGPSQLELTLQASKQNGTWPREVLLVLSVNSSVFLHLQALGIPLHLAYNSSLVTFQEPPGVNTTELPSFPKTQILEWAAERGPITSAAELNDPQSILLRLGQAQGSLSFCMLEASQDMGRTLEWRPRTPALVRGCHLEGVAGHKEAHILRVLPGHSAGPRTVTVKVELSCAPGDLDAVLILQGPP
Protocol: as §1

[4] = molecular target: T4, hENG(360-586)-hFc (human, UniProt P17813 360-586)
T4 construct: HEK 293, purified; not shown: linker and human IgG1 Fc domain
T4 sequence: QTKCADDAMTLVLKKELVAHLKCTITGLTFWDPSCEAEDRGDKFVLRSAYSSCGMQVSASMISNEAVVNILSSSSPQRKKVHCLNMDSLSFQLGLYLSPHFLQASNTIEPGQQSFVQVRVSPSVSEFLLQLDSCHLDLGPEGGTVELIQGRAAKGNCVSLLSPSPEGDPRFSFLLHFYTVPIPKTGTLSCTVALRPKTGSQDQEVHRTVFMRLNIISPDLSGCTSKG
Protocol: as §1

[5] = molecular target: T5, hENG(458-586)-hFc (human, UniProt P17813 458-586)
T5 construct: Expressed in COS cells, not purified; not shown: linker and human IgG1 Fc domain
T5 sequence: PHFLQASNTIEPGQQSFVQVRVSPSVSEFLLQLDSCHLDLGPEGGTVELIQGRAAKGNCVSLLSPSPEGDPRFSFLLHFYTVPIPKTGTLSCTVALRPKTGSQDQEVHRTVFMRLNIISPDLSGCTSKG
Protocol: as §1

[6] = molecular target: T6, hENG(61-346)-hFc (human, UniProt P17813 61-346)
T6 construct: HEK 293, purified; not shown: linker and human IgG1 Fc domain
T6 sequence: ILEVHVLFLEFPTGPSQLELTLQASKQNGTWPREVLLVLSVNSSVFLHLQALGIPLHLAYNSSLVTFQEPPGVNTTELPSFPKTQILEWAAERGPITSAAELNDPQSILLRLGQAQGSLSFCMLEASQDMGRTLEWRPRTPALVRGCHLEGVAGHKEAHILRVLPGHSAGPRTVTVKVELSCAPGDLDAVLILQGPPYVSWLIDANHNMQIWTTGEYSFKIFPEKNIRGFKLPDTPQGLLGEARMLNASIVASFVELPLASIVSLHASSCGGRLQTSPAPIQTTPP
Protocol: as §1

[7] = molecular target: T7, hENG(129-346)-hFc (human, UniProt P17813 129-346)
T7 construct: HEK 293, purified; not shown: linker and human IgG1 Fc domain
T7 sequence: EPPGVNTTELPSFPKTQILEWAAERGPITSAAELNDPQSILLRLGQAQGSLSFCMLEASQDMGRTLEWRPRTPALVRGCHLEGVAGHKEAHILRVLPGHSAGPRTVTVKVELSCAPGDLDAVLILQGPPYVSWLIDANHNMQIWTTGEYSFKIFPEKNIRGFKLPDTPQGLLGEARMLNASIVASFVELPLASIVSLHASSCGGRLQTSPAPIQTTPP
Protocol: as §1

[8] = molecular target: T8, hENG(133-346)-hFc (human, UniProt P17813 133-346)
T8 construct: HEK 293, purified; not shown: linker and human IgG1 Fc domain
T8 sequence: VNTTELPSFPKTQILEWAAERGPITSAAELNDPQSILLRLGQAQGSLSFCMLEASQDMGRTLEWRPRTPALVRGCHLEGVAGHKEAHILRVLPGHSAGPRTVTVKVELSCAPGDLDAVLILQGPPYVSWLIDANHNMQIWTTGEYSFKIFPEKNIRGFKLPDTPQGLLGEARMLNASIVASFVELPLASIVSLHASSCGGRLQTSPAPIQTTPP
Protocol: as §1

[9] = molecular target: T9, hENG(458-581)-hFc (human, UniProt P17813 458-581)
T9 construct: Expressed in COS cells, not purified; not shown: linker and human IgG1 Fc domain
T9 sequence: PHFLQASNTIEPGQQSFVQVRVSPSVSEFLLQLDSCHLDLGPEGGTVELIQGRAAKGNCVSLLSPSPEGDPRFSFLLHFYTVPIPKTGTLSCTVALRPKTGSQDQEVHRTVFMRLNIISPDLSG
Protocol: as §1

Measured: binding result

B1: BMP9 (ligand, human, UniProt Q9UK05 320-429, looked up)
chain: SAGAGSHCQKTSLRVNFEDIGWDSWIIAPKEYEAYECKGGCFFPLADDVTPTKHAIVQTLVHLKFPTKVGKACCVPTKLSPISVLYKDDMGVPTLKYHYEGMSVAECGCR
notes: also called hBMP-9; hBMP9
no binding (tested: 100 nM): [1] | [2] | [3] | [4] | [5] | [6] | [7] | [8] | [9]
